Source: article PMC10625565
Changes are numbered by the printed parent chain. In names and notes the source's numbering stands.

B1: MBP-PpRopGAP1 (wild type), A0A2K1KNT6 R239L (protein)
chain: MTQVLPTQIHLGSFTPDQSESEDYVNALHYVSDTDTDGYSGNHASPMILGDATISIRELCKEPEARKSGLSHSSSFSSITRGRWGEIGARSRNGSLNRRHSSFRSGSFNRSNNDQERERSAQLSLVALLLATVRRSVLTMCQDVEEGDESSLEIGWPTDVQHVAHVTFDRYNGFLGLPQEFEVEVPGRVPSASQSVFGVSAESMQCSYDHNGNSVPTILLLMQERLYHQGGLKAEGIFLINAENSHHEHVRDQLNKGIVPMDIDSYCLAGLIKAWFRELPQGVLDVLTPEQVLECHTEEESVALVKLLPPTQAALLDWAVNLMADVVQDEVVNKMNARNIAMVFAPNMTQMADPLTALMHAVQVMNLLKTLILRTLKDREEAILEQAQGLTRAEASEGDEPDSECNNVVLTSQERQNSLREEEASKVDCDEYSQRILIPVKRNTKVNSISKSGNLVNTIDHNNQRVEAW
B2: MBP-PpRopGAP1 (wild type), A0A2K1KNT6 H165A (protein)
chain: B1 chain with H165A, L239R

Molecular target: GST-PpROP4CA (G15V)
Assay: pull-down (MBP pull-down, Coomassie-stained SDS-PAGE, band quantification)
Conditions: chain shown with the change; three replicates; parent: est. 0.31; read off a plot

Sequence of GST-PpROP4CA (G15V) (chain, as listed by the source G15V): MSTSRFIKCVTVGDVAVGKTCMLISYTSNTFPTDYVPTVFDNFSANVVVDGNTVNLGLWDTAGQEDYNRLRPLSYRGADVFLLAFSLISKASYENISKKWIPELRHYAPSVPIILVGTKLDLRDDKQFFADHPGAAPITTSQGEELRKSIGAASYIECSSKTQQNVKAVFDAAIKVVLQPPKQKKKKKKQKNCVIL

Row | Binder | other: Protein ratio
1 | B1 | 0.25
2 | B2 | 0.1
